# Measurements taken from the nanobody polyreactivity screen of Harvey et al. (2022).
# Assay: yeast display, Sf9 membrane polyspecificity reagent, FACS + sequencing; frameworks hold sequencing errors
# Method in brief: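 Nanobodies from a synthetic yeast display library (Saccharomyces cerevisiae BJ5465), induced 36–48 hours with galactose, were stained 1 hour at 4 °C with 10% biotinylated, detergent-solubilized Sf9 membrane reagent, enriched on streptavidin microbeads, then FACS-sorted. Anti-HA (expression) and streptavidin (reagent binding) fluorescence set low and high (top ~1%) gates. Polyreactivity labels come from the gate of origin. Genes were colony-PCR amplified, MiSeq 2 × 250 sequenced and filtered by CDR length.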
row,Sequence,polyreactivity (PSR sort gate)
1,QVQLVESGGGLVQAGGSLRLSCAASGRIIYRYAMGWYRQAPGKERELVATITWSTTSTYHADSVKGRFTISRDNAKNTVYLQMNSLKPEDTAVYYCAASIIPGFRRDPFGYWGQGTQVTVSS,low polyreactivity
2,QVQLVESGGGLVQAGGSLRLSCAASGRIIYTNAMGWYRQAPGKERELVAAINRSGGITYYADSVKGRFTISRDNAKNTVYVQMNSLKPEDTAVYYCAKDSSWASYNHDYWGQGTQVTVSS,low polyreactivity
3,QVQLVESGGGLVQAGGSLRLSCAASGRIIYVYAMGWYRQAPGKERELVAAISDSGGSTYYADSVKGRFTISRDNAKNTVYLQMNSLKPEDTAVYYCAAEGYYSDYWGQGTQVTVSS,high polyreactivity
4,QVQLVESGGGLVQAGGSLRLSCAASGRIIYYAMGWYRQAPGKERELVAAITRNGGTYADSVKGRFTISRDNAKNTVYLQMHRLKPEDTAVYYCNADPDFGDDYWGQGTQVTVSS,low polyreactivity
5,QVQLVESGGGLVQAGGSLRLSCAASGRIIYYYAMGWYRQAPGKERELVAAISWSGVNTYYADSVKGRFTISRDNAKNTVYLQMNSLKPEDTAVYYCAAGFAYKYSKGFWSDYWGQGTQVTVSS,high polyreactivity
6,QVQLVESGGGLVQAGGSLRLSCAASGRILAINVMGWYRQAPGKERELVAAITLSSGSTYYADSVKGRFTMSRDNAKNTVYFQMNSLKPEDTAVYYCAADVYSGLSEGYYWGQGTQVTVSS,low polyreactivity
7,QVQLVESGGGLVQAGGSLRLSCAASGRILAPYAMGWYRQAPGKERELVAAINWSTGRTYYADSVKGRFTISRDNAKNTVYLQMNSLKPEDTAVYYCAALIVFDTLYDYGYWGQGPQVTVSS,low polyreactivity
8,QVQLVESGGGLVQAGGSLRLSCAASGRILARNAMGWYRQAPGKERELVAVISYSGGRTYYADSVKGRFTISRDNAKNTVYLQMNSLKPEDTAVYYCAASRSFQGNRYDYWGQGTQVTVSS,high polyreactivity
9,QVQLVESGGGLVQAGGSLRLSCAASGRILARYAMGWYRQAPGKERELVASISRRGGSTYYADSVKGRFTISRDNAKNTVYLQMNSLKPEDTAVYYCNARGPVSSGYDYWGQGTQVTVSS,high polyreactivity
10,QVQLVESGGGLVQAGGSLRLSCAASGRILDANDMGWYRQAPGKERELVAGINSGGSTYYADSVKGRFTISRDNAKNTVYLQMNSLKPEDTAVYYCAAGGVSAKYDYWGQGTKVTVSS,low polyreactivity
11,QVQLVESGGGLVQAGGSLRLSCAASGRILDFNAMGWYRQAPGKERELVAAINNSGGSTYYADSVKGRFTISRDNAKNTVYLQMNSLKPEDTAVYYCARYAIWKRGYWGQGTQVNVSS,low polyreactivity
12,QVQLVESGGGLVQAGGSLRLSCAASGRILDKYAMGWYRQAPGKERELVARIRFSGGDTYADSVKGRFTISRDNAKNTVYLQMNSLKPEDTAVYYCNKDRRNRWYAFDYWGQGTQVTVSS,low polyreactivity
13,QVQLVESGGGLVQAGGSLRLSCAASGRILDVNDMGWYRQAPGKERELVAAISSGTNTYYADSVKGRFTISRDNAKNTVYLQMNSLKPEDTAVYYCAADYLGLSDADDYDYWGQGTQVTVSS,low polyreactivity
14,QVQLVESGGGLVQAGGSLRLSCAASGRILFHYAMGWYRRAPGKERELVAAITWRGGGTHYADSVKGRFTISRDNAKNTVYLQKNSLKPEDTAVYYCNAEYNGYFSRSGFYYWGQGTQVTVSS,low polyreactivity
15,QVQLVESGGGLVQAGGSLRLSCAASGRILFSYGAMGWYRQAPGKERELVAAISYSGGSTYYADSVKGRFTISRDNAKNTVYLQMNSLKPEDTAVYYCAASSIVYRHYYWGQGTQVTVSS,high polyreactivity
16,QVQLVESGGGLVQAGGSLRLSCAASGRILGAYAMGWYRQAPGKERELVASISSGGRTYYADSVKGRFTISRDNAKNTVYLQINSLKQEDTAVYYCAAEYFIWSYPRYEYWGQGTQVNVSS,high polyreactivity

row,Sequence,polyreactivity (PSR sort gate)
1,QVQLVESGGGLVQAGGSLRLSCAASGRILGDYAMGWYRQAPGKEREFVAAIDYNGGSTNYADSVMGRFTISRDNAKNTVYLQMNSLKPEDTAVYYCAKTDGFYRGYGYWGQGTQVTVSS,low polyreactivity
2,QVQLVESGGGLVQAGGSLRLSCAASGRILGKNTMGWYRQAPGKEREFVAAISASGGRTYYADSVKGRFTISRDNAKNTVYLQMNSLKPEDTAVYYCAAARSRYSYATGFDYWGQGTQVTVSS,high polyreactivity
3,QVQLVESGGGLVQAGGSLRLSCAASGRILGKYAMGWYRQSPGKERELVAAIRLRGGSTYYADSVKGRFTISRDNAKNTLYLQMNSLKPEDTAVYYCAARFWDRSQAYNYWGQGTQVTVSS,high polyreactivity
4,QVQLVESGGGLVQAGGSLRLSCAASGRILGYNAMGWYRQAPGKERELVAAITSGGSTYYADSVKGRFTISRDNAKNTVYLQMNRLKPEDTAVYYCAKRAFSYVGGQQDRNENYYYWGQGTQVTVSS,high polyreactivity
5,QVQLVESGGGLVQAGGSLRLSCAASGRILIPYAMGWYRQAPGKEREFVAGITGSGGRTYYADSVKGRFTISRDNAKNTVYLQMNSLKPEDTAVYYCDAVYYYSPTMYYWGQGTQVTVSS,low polyreactivity
6,QVQLVESGGGLVQAGGSLRLSCAASGRILKRNSMGWYRQAPGKERELVAAITSSGGSTYADSVKGRFTISRDNEKNTVYLQMNSLKPEDTAVYYCNAGYKRPWSHKYYWGQGTQVTVSS,low polyreactivity
7,QVQLVESGGGLVQAGGSLRLSCAASGRILKVYAMGWSRQAPGKERELVAAITSGSSTYADSVKGRFTISRDNAKNTVYLQMNSLKPEDTAVYYCAAVFWVDILPGDYWGQGTQVTVSS,low polyreactivity
8,QVQLVESGGGLVQAGGSLRLSCAASGRILKWNAMGWYRQAPGKERELVAAISQSGGSTYYADSVKGRFTISRDNAKNTVYLQMNSLKPEDTAVYYCATSGDWWGFRYDYWGQGTQVTVSS,low polyreactivity
9,QVQLVESGGGLVQAGGSLRLSCAASGRILKYYAMGWYRQAPGKERELVAAISGSSGSTYYADSVKGRFTISRDNAKNTVYLQMNSLKPEDTAVYYCAAQGRDSTPHGYWGQGTQVTVSS,high polyreactivity
10,QVQLVESGGGLVQAGGSLRLSCAASGRILLRNVMGWYRQAPGKERELVAVITRTGITYYADSVKGRFTISRDNAKNTVYLQMNSLKPEDTAVYYCAAGLPKYEHDYWGQGTQVNVSS,low polyreactivity
11,QVQLVESGGGLVQAGGSLRLSCAASGRILNYYTMGWYRQAPGKERELVAAISGSDGNTYYADSVKGRFTISRDNAKNTVYLQKNSLKPEDTAVYYCSADLYDEWGQGTQVTVSS,low polyreactivity
12,QVQLVESGGGLVQAGGSLRLSCAASGRILPRNAMGWYRQAPGKERELVAAISWDGGSTYYADSVKGRFTISRDNAKNTDYLHMNSLKPEDTAVYYCATDYPSLHRGMDYWGQGTQVTVSS,low polyreactivity
13,QVQLVESGGGLVQAGGSLRLSCAASGRILPRNAMGWYRQAPGKERELVAGISSEGSTNYADSVKGRFTISRDNAKYTVYLQMNSLKPEDSAVYYCAADGVYDPNLYGYWGQGTQVNVSS,low polyreactivity
14,QVQLVESGGGLVQAGGSLRLSCAASGRILPYYAMGWYRQAPGKERELVAAITSGGSTYYADSVKGRFTISRDNAKNTVYLQMNSLKPEDTAVYYCATDVDKSLYDYWGQGTQVTVSS,low polyreactivity
15,QVQLVESGGGLVQAGGSLRLSCAASGRILRDYDMGWYRQSPGKERELVAAINWSDGSTYYADSVKGRFTISRDNAKNTVYLQMNSLKPEDPAVYYCAASRWRPLERGTTWLHDYWGQGTQVTVSS,low polyreactivity
16,QVQLVESGGGLVQAGGSLRLSCAASGRILRFYAMGWYRQAPGKERELVATISRSGGSTYYADSVKGRFTISRDNAKNTVYLQMNSLKPEDTAVYYCNAFLYARQRDRWARYDYWGQGTQVTVSS,high polyreactivity
